Laboratory results from US20240043504A1 (published 2024).
Numbering of substitutions follows the chain as printed.

What was measured:
[1] = molecular target: SARS-CoV-2 Spike Protein (S1 Subunit, Fc Tag) (Sino 40591-V02H) (SARS-CoV-2, UniProt P0DTC2 16-685); experiment: Luminex, supernatant
[2] = molecular target: SARS-CoV-2 Spike Protein (S1 Subunit, His Tag) (Sino 40591-V08H) (SARS-CoV-2, UniProt P0DTC2 16-685); experiment: Luminex, supernatant
[3] = molecular target: SARS-CoV-2 (2019-nCoV) Spike Protein (S1 Subunit, Fc Tag) (Sino 40591-V02H) (SARS-CoV-2, UniProt P0DTC2 16-685); experiment: Luminex bead binding, supernatant
[4] = molecular target: SARS-CoV-2 (2019-nCoV) Spike Protein (S1 Subunit, His Tag) (Sino 40591-V08H) (SARS-CoV-2, UniProt P0DTC2 16-685); experiment: Luminex bead binding, supernatant

B1: mAb10989 (antibody, V domains shown)
VH: QVQLVQSGAEVKKPGASVKVSCKASGYIFTGYYMHWVRQAPGQGLEWMGWINPNSGGANYAQKFQGRVTLTRDTSITTVYMELSRLRFDDTAVYYCARGSRYDWNQNNWFDPWGQGTLVTVSS
VL: QSALTQPASVSGSPGQSITISCTGTSSDVGTYNYVSWYQQHPGKAPKLMIFDVSNRPSGVSDRFSGSKSGNTASLTISGLQAEDEADYYCSSFTTSSTVVFGGGTKLTVLG
In the case of B1, the MFI [1] is reported as 12300 MFI and the MFI [2] is reported as 14200 MFI.

B2: mAb10967 (antibody, V domains shown)
VH: EVQLVESGGGLVQPGGSLRLSCAASGFTVSSNYMSWVRQAPGKGLEWVSVIYPGGSTFYADSVKGRFTISRDNSKNTLYLQMNSLRAEDTAVYYCARDQRDFAWGQGTLVTVSS
VL: DIQMTQSPSSLSASVGDRVTITCQASQDISNYLNWYQQKPGKAPKLLIYDASNLETGVPSRFSGSGSGTDFTFTISGLQPEDIATYYCQQYDNLPPTFGQGTRLEIKR
With B2 the MFI [1] was 15800 MFI and the MFI [2] was 21900 MFI.

B3: mAb10954 (antibody, V domains shown)
VH: EVQLVESGGGLVQPGGSLRLSCAASGITVSSNYMSWVRQAPGKGLEWVSLIYSGGSTYYADSVKGRFTISRDNSKNTLYLQMNSLRVEDTAVYYCARDHGMAAAGYNYWGQGTLVTVSS
VL: B2 VL with S30N, N31K, S76N, G77S, I83F, Y87F, T97A, R103K, L104V
B3 gave an MFI [1] of 16600 MFI and an MFI [2] of 21300 MFI.

B4: mAb11006 (antibody, V domains shown)
VH: EVQLVESGGGLVQPGGSLRLSCAASGFIVSRNYMSWVRQAPGKGLEWVSVIYSGGSTFYADSVKGRFTISRHNSKNTLYLQMNSLKAEDTAVYYCARELRGYFDYWGQGTLVTVSS
VL: DIQLTQSPSFLSASVGDRVTITCWASQGISSYLAWYQQKPGKAPKLLIYAASTLQSGVPSRFSGSGSGTEFTLTISSLQPEDFATYYCQLLNSYPYTFGQGTKLEIK
With B4 the “Binding signal (MFI)” value [3] was 2050 MFI.

B5: mAb11008 (antibody, V domains shown)
VH: EVQLVESGGGLVQPGGSLRLSCAASGFTVSSNYMTWVRQAPGKGLEWVSVIYSGGSTFYADSVKGRFTISRHNSENTLYLQMNSLRAEDTAVYYCARDLAAAGTDYWGQGALVTVSS
VL: B4 VL with E81D, L90H, P95L
For B5, the “Binding signal (MFI)” value [3] was 6880 MFI and the “Binding signal (MFI)” value [4] was 1420 MFI.

B6: mAb10971 (antibody, V domains shown)
VH: EVQLVESGGGLIQPGGSLRLSCAASGVTVSSNYMSWVRQAPGKGLEWVSVIYSGGSTFYSDSVKGRFSISRDNSKNTLYLQMNSLRAEDTAVYYCARDLYYYGMDVWGQGTTVTVSS
VL: DIQLTQSPSFLSASVGDRVTITCRASQGISTYLAWYQQKPGKAPKLLIYAASTLQSGVPSRFSGSGSGTEFTLTISSLQPEDFATYYCQQLDSYPGLTFGGGTKVEIKR
B6 showed an MFI [1] of 17000 MFI and an MFI [2] of 21600 MFI.

B7: mAb10956 (antibody, V domains shown)
VH: B6 VH with I12V, V27L, S60A, S68T, Y100I, Y101K
VL: not shown
For B7, the MFI [1] was 15000 MFI and the MFI [2] was 20000 MFI.

B8: mAb10957 (antibody, V domains shown)
VH: B6 VH with I12V, S60A, S68T, Y79F, A87I, Y100G, Y101P
VL: B6 VL with T31S, E70Q, T72I, D92N, L97F, G101P, E106D
B8 gave an MFI [1] of 8450 MFI and an MFI [2] of 12000 MFI.

B9: mAb10964 (antibody, V domains shown)
VH: QVQLQESGPGLVKPSETLSLTCTVSGGSINNYYWIWIRQPPGKGLEWIGYIYHSGSTNYNPSLKSRVTISVDTSKNQFSLKVSSVTAADTAVYYCANMVRGVYEDDYWGQGTLVTVSS
VL: DIQMTQSPSSLSASVGDRVTITCRASQSISNYLNWYQQKPGKAPKLLIFAASSLRSGVPSRFSGSGSGTDFTLTISSLHPEDFATYYCQQNYNTPLTFGPGTKVDIKR
B9 showed an MFI [1] of 18600 MFI and an MFI [2] of 24200 MFI.

B10: mAb11004 (antibody, V domains shown)
VH: QVQLVESGGGVVQPGRSLRLSCVASGFTFSIYGMDWVRQAPGKGLEWVAVISYDGSNKYYADSVKGRFTISRDNSKNTLYLQMNSLRPEDTAVYYCAKDREAAADAFDIWGQGTMVTVSS
VL: DIQMTQSPSSVSASVGDRVTITCRASQGISSWLAWYQQKPGKAPKLLIYAASSLHSGVPSRFSGSGSGTDFTLTISSLQPEDFATYYCQQANSFRLTFGGGTKVEIK
In the case of B10, the “Binding signal (MFI)” value [3] is reported as 4480 MFI and the “Binding signal (MFI)” value [4] is reported as 9530 MFI.

B11: mAb10998 (antibody, V domains shown)
VH: EVQLVESGGGLVHPGGSLRLSCAASGLTVSSNYMSWVRQAPGKGLEWVSVIYSGGSTYYADSVKGRFTISRHNSKNTLFLQMNSLRAEDTAVYYCARDRPITGTTLDVWGQGTTVTVSS
VL: DIQMTQSPSSLFASVGDRVTITCRASQSISSYLNWYQQKPGKAPKLLIYAASSLQSGVPSRFSGSGSGTDFTLTISSLQPEDFAFYYCQQTYSTPPITFGQGTRLEIK
With B11 the “Binding signal (MFI)” value [3] was 724 MFI and the “Binding signal (MFI)” value [4] was 717 MFI.

B12: mAb10966 (antibody, V domains shown)
VH: EVQLVESGGGLVQPGGSLRLSCAASGLTVSSNYMSWVRQAPGKGLEWVSVIYSGGSTFYADSVKGRFTISRDNSKNTLYLQMNSLRPEDTAVYYCAREGRIAATGYGMDVWGQGTTVTVSS
VL: not shown
Work on B12 yielded an MFI [1] of 16400 MFI and an MFI [2] of 23300 MFI.
